# B1: rBPI21: expression product of DNA encoding amino acid 1 to approximately 193 or 199 of BPI holoprotein, cysteine 132 substituted with alanine (protein, UniProt P17213 32-224, looked up, variant C132A)
# chain: VNPGVVVRISQKGLDYASQQGTAALQKELKRIKIPDYSDSFKIKHLGKGHYSFYSMDIREFQLPSSQISMVPNVGLKFSISNANIKISGKWKAQKRFLKMSGNFDLSIEGMSISADLKLGSNPTSGKPTITASSCSSHINSVHVHISKSKVGWLIQLFHKKIESALRNKMNSQVCEKVTNSVSSELQPYFQTL
# Key:
# A. baumannii = test: Bactericidal activity in serum, broth or water, CFU after 4 hours (Example 2); format: cell-based
# Experimental: The bactericidal activity of therapeutic compositions comprising BPI protein product and either poloxamer 333 (PLURONIC P103, BASF Wyandotte Corp.) or heat-treated PLURONIC P103, was evaluated against the clinical isolates of Example 1. Therapeutic compositions comprising 160 μg/mL rBPI21 and varying concentrations of either PLURONIC P103 or heat-treated PLURONIC P103 were formulated by diluting a 2 mg/mL solution of “non-formulated” rBPI21 (in buffer comprising 5 mM sodium citrate and 150 mM NaCl, without any surfactants) with the appropriate amounts of PLURONIC P103 or heat-treated PLURONIC P103 solutions. A “formulated” rBPI21 solution containing 2 mg/mL rBPI21, 0.2% poloxamer 188 (PLURONIC F68, BASF Wyandotte Corp.), 0.002% TWEEN 80 (polysorbate 80, ICI Americas, Wilmington, Del.), 5 mM sodium citrate and 150 mM NaCl was also tested for comparison. Poloxamer control solutions containing only 0.1% PLURONIC P103 or 0.1% heat-treated PLURONIC P103, and no rBPI21, were also prepared.
# A 0.1% (w/v) solution of PLURONIC P103 was prepared by stirring the PLURONIC P103 in deionized water until dissolved and filtering the solution through a […] cellulose acetate polystyrene filter unit (Corning Inc., Corning, N.Y.). […]
# The bacteria to be used in the assays were grown on tryptic soy agar (TSA) plates (Remel, Catalog #01-920, Lenexa, Kans.) for 24 hours. […] A bacterial stock emulsion was prepared by emulsifying bacterial colonies in sterile deionized water to approximately 2.2 to 3.8×10^8 colony forming units (CFU)/mL as measured by a Microscan® Turbidity Meter (Dade Microscan, West Sacramento, Calif.), and diluting further by 1:10 in water. […] Following incubation, the remaining colony forming units (CFU) in each well were counted at a 10^−2 dilution by plating 10 μL from each well onto TSA plates. The TSA plates were incubated at 37° C. for 24 hours and the number of bacterial colonies were visually counted. […]
# [1] = test system: S. pneumoniae (Microscan® ID no. 145); test: Bactericidal activity in water or broth, CFU after 30 minutes and 3 hours (Example 3); format: cell-based
# Experimental: The bactericidal activity of therapeutic compositions comprising BPI protein product and heat-treated PLURONIC P103 or heat-treated PLURONIC P104, was evaluated against the S. aureus and A. baumannii clinical isolates of Example 1 and the additional organisms S. pneunoniae (Microscan® ID no. 145) and E. faecium (Microscan® ID no. 15773). Therapeutic compositions comprising 500 μg/mL rBPI21 in a 0.075% (w/v) concentration of either heat-treated PLURONIC P103 or heat-treated PLURONIC P104 were formulated by diluting a 2 mg/mL solution of “non-formulated” rBPI21 or “formulated” rBPI21, with the appropriate amounts of 0.1% heat-treated PLURONIC P103 or heat-treated PLURONIC P104 solutions. Compositions comprising 500 μg/mL non-formulated rBPI21 in water alone (without any poloxamers) and poloxamer control solutions containing only 0.1% heat-treated P103 or heat-treated P104 (and no rBPI21) were also prepared A “formulated” rBPI23 therapeutic composition containing 1 mg/mL rBPI23, 0.1% PLURONIC F68 and 0.002% TWEEN 80 was also tested for comparison.
# Sterile stock solutions of heat-treated PLURONIC P103 or heat-treated PLURONIC P104 were prepared using the following procedure: (1) making a 0.1% (w/v) solution of the poloxamer in deionized water, (2) heating the solution to a boil, (3) allowing it to cool to room temperature, (4) stirring until the PLURONIC P103 was completely solubilized, and (5) filtering the solution through a 0.22 μm Nalgene filter for sterilization.
# The S. aureus, E. faecium and A. baumannii bacteria were grown on TSA plates (Remel, Catalog #01-920, Lenexa, Kans.), and the S. pneumoniae were grown on 5% sheep blood agar plates (Remel, Catalog# 01-200, Lenexa, Kans.) for 24 hours. A bacterial stock emulsion was prepared by emulsifying bacterial colonies in sterile deionized water to approximately 2.2 to 3.8×10^8 CFU/mL as measured by a Microscan® Turbidity Meter, and diluting further by 1:10 in water. Assays for rBPI21 therapeutic compositions were conducted in 96-well flat-bottom microtiter plates (Corning, catalog# 25860-96) by adding to each well: 185 μL of TSB (Remel, catalog #08-942, Lenexa, Kans.) or sterile water for injection (Kendall McGaw); 8 μL of the bacterial emulsion; 6.3 μL of the indicated 500 μg/mL rBPI21/poloxamer therapeutic composition (or poloxamer control solution or water alone). The final concentrations of bacteria in each well were about 4 to 7×10^5 CFU/mL. Assays for the rBPI23 therapeutic composition were conducted in the same way, except 178 μL of broth or water and 13 μL of the […] rBPI23 composition were added. The well contents were mixed and the plates were incubated at 37° C. The CFUs in each well were counted at 10^−2 and 10^−4 dilutions after 30 minutes and 3 hours of incubation. Results at 30 minutes and 3 hours, respectively, are shown below in Tables 8 and 9.
molecule,measurement,setting,value
B1,colony forming units after 4 hours,"A. baumannii; Broth, bacteria only >5000",>5000 100's of CFUs
same,colony forming units after 4 hours,"A. baumannii; Serum, bacteria only >2000",>2000 100's of CFUs
same,colony forming units after 4 hours,"A. baumannii; Water, bacteria only >2000",519 100's of CFUs
same,CFUs,"[1]; broth, Incubation for 30 minutes, Control 4 / 1",4 10000 CFUs
same,CFUs,"[1]; broth, Incubation for 30 minutes, Control 389 / 350",290 100 CFUs
same,CFUs,"[1]; broth, Incubation for 3 hours, Control 337",447 100 CFUs
same,CFUs,"[1]; water, Incubation for 30 minutes, Control 1 / 0",0 10000 CFUs
same,CFUs,"[1]; water, Incubation for 30 minutes, Control 75 / 47",61 100 CFUs
same,CFUs,"[1]; water, Incubation for 3 hours, Control 0",0 100 CFUs
